This is an account of results in paper PMC8604967.

The assay concerns the target yeast-displayed E4 peptide. The experiment in a line: flow cytometry on cells; E4 displayed on yeast cells; FITC-K4-TAMRA added at 100 nM, 15 min, 4 °C, PBS containing 5% immunoblock, two washings; 488 nm laser, 525/50 and 585/30 filters. In general terms: In flow cytometry, cells or beads pass a laser one at a time.

No end group written: not given here. *: point of attachment. FITC = O=C1OC2(c3ccc(O)cc3Oc3cc(O)ccc32)c2ccc(NC(=S)*)cc21

In the case of {FITC}-KIAALKEKIAALKEKIAALKEKIAALKEC(5‑TAMRA C6 maleimide) [FITC-K4-TAMRA], the mean FITC and TAMRA fluorescence was 10000.
